Laboratory results reported in the RNAGym collection of RNA variant scans (doi:10.7554/elife.90254).

B1: LINE1-full (parent)
chain: UACGUAGGUGGUUUUCCCCUGAUAGUGCUAAGGGGGCCUGGAAGUUUGGACUGGGCAGAGCUCAACACAGCGUGGCAAAGUGGCUGUGGCUAGACUGCCUCUCUGGAUUCCUCGUCACUCAGCAGGGCAUCUCUGAGAGAAAUGCC

Variants of: B1
Experiment: self-cleavage, relative activity (ratio to wild type); higher = more cleavage; in vitro, sequencing; the parent is a self-cleaving ribozyme

| Variant | self-cleavage |
| --- | --- |
| G53U A69U | 0.01 |
| G35A A67G | 0.22 |
| A42U A117G | 1.21 |
| U9C U23A | 1.22 |
| C37U A140U | 1.14 |
| U52C A92U | 0.52 |
| U100C C146U | 1.71 |
| A65G A67G | 0.09 |
| C90A A107G | 0.04 |
| G4A U108C | 1.04 |
| G34U U81C | 2.12 |
| U100C G144A | 1.07 |
| U46C A124G | 1.54 |
| G40A U85A | 0.02 |
| A6G U132A | 1.04 |
| A2U A107G | 1 |
| U26G A69G | 0.17 |
| G49U U62C | 0.08 |
| C61G | 0.06 |
| U14C A136U | 1.42 |
| A138U U143C | 1.23 |

| Variant | self-cleavage |
| --- | --- |
| A79U U143A | 1.29 |
| G36U U62A | 0.03 |
| A50U C120A | 1.46 |
| U47C A57G | 1.54 |
| U46C G122A | 1.6 |
| A77G U100A | 1.93 |
| U23C U87C | 0.25 |
| U14C U20A | 0.89 |
| G36C A64C | 0.35 |
| C71A U115A | 0.16 |
| A59G G93U | 0.03 |
| G34U U96G | 0 |
| U9C G35U | 1.13 |
| G54A A79G | 0.4 |
| A42U C84U | 0.09 |
| U29C A142C | 1.06 |
| A50G U62A | 0.09 |
| G80A G127C | 1.6 |
| A50U G89A | 0.02 |
| U62C G93U | 0.03 |
| A107U U112C | 1.84 |

| Variant | self-cleavage |
| --- | --- |
| A57U A92G | 0.07 |
| C98A | 0.17 |
| A43U U100A | 0.84 |
| U132C U134C | 1.35 |
| U15A A138U | 1.07 |
| A57G G137A | 0.99 |
| U13G G34U | 1.2 |
| U29A A64U | 0.25 |
| C19A C128U | 1.08 |
| U20A C37G | 2.63 |
| G32C A141G | 1.99 |
| U100C C123U | 2.06 |
| G33U C116U | 1.17 |
| G40C U45C | 0.75 |
| A138U A140G | 1.2 |
| C19U A67U | 0.1 |
| U45C G60U | 0.02 |
| U20A U73A | 1.5 |
| A65U U134A | 0.13 |
| U1A U26C | 1.93 |
| A57G C116U | 0.71 |

| Variant | self-cleavage |
| --- | --- |
| U115C G135A | 2.23 |
| U26A G44A | 1 |
| U45C U132G | 1.33 |
| G70U U91C | 0.03 |
| U5C A30G | 0.74 |
| U14C U52C | 1.21 |
| U14C U52G | 1.51 |
| A6U G34U | 1.02 |
| U87C A136C | 0.16 |
| U46C U85A | 0.14 |
| A79G C116U | 1.63 |
| G7A G8C | 0 |
| U15A G55C | 0.15 |
| A22U A79G | 0.96 |
| U100A G126A | 1.03 |
| A57U A65U | 0.06 |
| A69G U100A | 0.17 |
| G53C U81C | 1.34 |
| A64G U102A | 0.15 |
| A129C U134A | 1.59 |
